According to paper PMC8115288, “INI1/SMARCB1 Rpt1 domain mimics TAR RNA in binding to integrase to facilitate HIV-1 replication”:

How the values were obtained:
[1] = molecular target: T1, GST-IN-CTD (HIV-1 integrase C-terminal domain) (HIV-1, UniProt P04585 1348-1435); experiment: competition (AlphaScreen); low salt; competes with His6-SUMO-INI1(183-304) (0.094 uM) for GST-CTD (0.186 uM); Alpha proximity assay, low salt (100 mM NaCl; 500 mM in salt test); buffer, pH and temperature not in the material; details: protein: recombinant; tags: GST; hairpin
[2] = molecular target: T1, GST-IN-CTD (HIV-1 integrase C-terminal …); experiment: AlphaScreen; 100 mM NaCl; displaced by INI1(183-304), IC50 of INI1 about 5 nM (Fig. 4e); Alpha proximity assay, low salt (100 mM NaCl; 500 mM in salt test); buffer, pH and temperature not in the material; details: protein: recombinant; tags: GST; label: biotin; hairpin

B1: unlabeled TAR RNA (HIV-1 vRNA 1-57) (structured_RNA)
RNA: GGUCUCUCUGGUUAGACCAGAUCUGAGCCUGGGAGCUCUCUGGCUAACUAGGGAACC
B1 was tested, and the IC50 [1] was about 5 nM.

B2: Bio-TAR RNA (HIV-1 vRNA 1-57) (structured_RNA)
RNA: GGUCUCUCUGGUUAGACCAGAUCUGAGCCUGGGAGCUCUCUGGCUAACUAGGGAACC
modifications: biotin-dT (terminal; end ambiguous in printed table)
B2: binds [2].
